A short description of the series: label from the status in PepcDB records.
In the case of “MFNFFKNKQTEPAAPPPPKDPTPRIEFFNGISEELSNVSLQRNPKTGVKSVSMTFAQLNALDRFQSFTAGSNGIVRLIDEEGDIAVTPSSCRIVFGGEEGDELRGVICRFEIENDDHWERFMRFMHRYADEHGFAYGESAETSNEPSSLASETDSEA”, the protein production entry was “failed”.
As for “MNMNHYRPVILADQRVVSDFELDPLTRKISIKILQGHEQGNKGMVDTLRQNLQQRLGVPVEIPLALMNHLVKLVRDGNEVITATLAAGNDINEDGKAASYQVIDAEPGDHTGVQVGLAIDIGTTTVVVYLVNMVNGDIIAKASDYNGQIKLGDDILSRIMAAREEKGLQELQALIVNTLNALIQQLCLEAELKPQAITGVCIGANTTMVHLCLGLDPGSICRAPYRPAVNNAGIFCAGEIGLAVHPLAPTYCLPSIGSYIGGDVLAGILVSGMHKQEEVALLADIGTNGEFILGNQEWLVGCAGAAGPALEGGVTEWGIRAEQGAVDQVSIDSEHHVGYTTIDNAPARGICGSGLIDSLAELFLNGLINRAARFTDGRERFTIVPADESATGKEIFISQKDINSLMRTKGAVNAALEVLMESVGCQWEEIAKFYAAGAFGQYLPIESAVTIGLYPDLPREQMLRLGNSSGEGARQVLLSNSKRQEIEEIAGKITYFEMNASSSFMDKYGGSRFLPHTNMDLFPSVQEKLAVRQRSRC”, the protein production entry is listed as “failed”.
Turning to “THSVETPYGSVTFTVYGTPKPKRPAIFTYHDVGLNYKSCFQPLFRFGDMQEIIQNFVRVHVDAPGMEEGAPVFPLGYQYPSLDQLADMIPCILQYLNFSTIIGVGVGAGAYILSRYALNHPDTVEGLVLINIDPNAKGWMDWAAHKLTGLTSSIPDMILGHLFSQEELSGNSELIQKYRGIIQHAPNLENIELYWNSYNNRRDLNFERGGETTLKCPVMLVVGDQAPHEDAVVECNSKLDPTQTSFLKMADSGGQPQLTQPGKLTEAFKYFLQG”, the protein production result is “not failed”.
For the sequence “MSMYNMDLDKVIRKINKKGARTVGLQFPEGLKMQAVKIAKAIESQTPATVIISGDPCFGACDVSDYKMKGSVDLIVHYGHTPLPLKYEVPTLFIEAFSNIDVKKDLEKCLEKLEDYSKIALVTTTQHLHLLNEIKDYLEDNGKEVVLGSSKNTKKGQVLGCNFSSIKNLDAEVYLFIGSGNFHPLGIYLFTKSPVLALDPYNSEIRDISAFADRILRIRFARITKAREAEKWGIIVSSKEGQYRMKLAKEIKKILEDNKMEAYIIMADNINPDILLPYMELDAFVVSACPRIAIDDSQMYKKPLLTPQELEIVLNKRQWENYQLDEILFHERYK”, the protein production result is listed as “failed”.
Take “MRLLYVIKKENPMDQMPNCPKCQSEYVYHDSINFVCPDCGNEWDNNEIQESDDDQLIVKDSNGNLLAEGDNVLLIKDLKLKGSSEVLKKGTKFKNIRLVNGDHNVDCGKIMLKSEFLKKA”: the protein production result is reported as “failed”.
For “MFVWHEYENAAEAAQSLADAVADALQGALDEKGGAVLAVSGGRSPIAFFNALSQKDLDWKNVGITLADERIVPTNHADSNTGLVREYLLKNKAAAAVWIPMVEDGKTETELHPDAVVDYALKHYKQPDVLILGMGNDGHTASIFPKAPQFQTAIDGSAGVALVHTTPVTAPHERISMTLDAIAHTGHVFLAIQGEEKKAVFDQAAQGENREYPISLVLNHQGVNCHVFYAE”, the protein production result was “not failed”.
Consider “MGCFASRPNDTGGNRRKPTSIGDVSVYVPGLRIPKPVEFSQSLGDQLPKTLVERLTALRTRIVVMANQEGPTITRTRRKTQHGGSTLADLHHALEDYIPVLLGLTKDGSHLQFKVQFNWVNQEDEEEETAMSNVWYEILSVLHLMAMLQMSQANLLLLPRGSSDGYHPKISEENRRASIDIFLKAAGYLDCAVKHVLPHFSTEQRRSLPIDLAEGALRALCLQALGQGVDIQLGMAIDSAKATLAVKRRLSCEMVKYWQQAQDNLMNLPLANGWGEKHMLFVKWKYVEAKAAAYYYHGLILDEGNTEKSHGMAVAALQAADECLKESKKASEAFNTSSPTSRTPSLFGTMKYLSEKIPKETSSKVRINRDLYSYEKIMETAPTLPDFALALKPDEYQLPSVDASWSEASLRTKNTSNHI”, for which the protein production result is “not failed”.
In the case of “MKLNVKMLSVTLGLFTSHAFAHTVYENARIYTVNDQQPTASVLVVEQGKIIYVGGNDGAKQFKATAAELFDLEGKTVLPGFIESHAHPATVAVMQAGDFVYVDGAASLTQILNQLKDYLAAHPKANYLLAQGFNVASLGLPQGALPTAADLDTVSTSIPIVVYDSGMHAGWANSAALKIAHVDANTPDPISGKHYFERDNKGNPTGFMHESAMHNVVDAQQFNTVENVAEQLKPILNTYHSLGFTAITDVGDTFSTTTAAIARLNDQGKLKVYYQRGYFYDAAKSTEQNIASLKALREKYNRGNLSMNLYKLFMDGTIEMDSGAMFKPYPNGNIVEPFLSQKQINDNVAAALKAGFSVHVHAIGDKAQQSILDAFEASKNINPHLARVIAHNQVFEPQGVQKFAAMKDNLFLQTTPNWTVLNEKDETKTKIGSDAYNHQYLLGQVVREGVAVTFGSDYPANTFDAVNPFSQMYHAIKRGQPNAGYLPPTDAAMTLDQSLRAYTINGAKQLGISDITGSLEKGKNADFIIVDTDIGSVDLEKLKNTNVLATYFKGEKVY”, the protein production entry is reported as “failed”.
As for “MSRTTASTCMGERRQSSLKRLAIFRPVQRLPARELLPLDGDRWLVAAQRREPERGPNGLGNGQRRPVQFRREVPGEHDVCIHIHRAVGFEDVIHDEPHPVGGLPFDDIRCGHIYALLGQSIGYVRVVSDADLDDGIDRRQSVDKRAGGVGHVVQFMRCGRICVPMHVDIVPVGEVSAQVKREASDGLRSVYDCEVSMHEPQSIPAGAYDGDRDQYRAEEFIDLARRVGSGGKNIAITPKDLFYRRRNYVFGLAYLGGSGSVISTYRLQTSSDGGFSNRSAGEIFSQRVRKEVVHEVGHTLGLEHCDNKRCVMNFSPTVRQVDVKEVSLCGSCQRNVL”, the protein production entry was “failed”.
Under “WERLRMLLEVCQFSRDASVAEAWLIAQEPYLASGDFGHTVDSVEKLIKRHEAFEKSTASWAERFAALEKPTTLELKERQIA” stands “failed”; under “MKRKKIKNQLLVLTSILVLLSLEVAPVVTLAAELPSSSLQTALSSETTITSEEKVTETTETTVATSTTSTSSSSSESSSSTDTTTESTSQSTTETTTTNTSSETKKEPTEPTVSSEITQPVEQSQPPQVPVTKQEPEEPIQVPEANNNFVEENQAVSLNPSLKVDEIASSNLKGYELPLLSSFGEKKRAVVVAEALRHVGKTKKEFNLTEQALTSSFLAQKIYQQLFKIDIGSTPQEQMTFGKVRSIEEAEPGDLIFWQTAEGKTLQNGVYLGQGKYLIAAAESDSKEKPEVIAQLENIYTAKQQPDSKEEKRLVVTNPFKEFILTEYGKEVLATYGASFEMQKSEQTTAFIKKIGETARELGEKYDVFASVMIAQAILESGSGESQLAKEPYYNLFGVKGSFQGNSVSFSTKEADQRGQLYTISAGFRDYGGYNDSLQDYVQLLRQGIDGNQDFYKPAWRSEAKNYLQATRFLTGKYATDKQYDNKLNSLIAVYNLTQFDLPKTVDGLIIQSKNKLSEAEQQQMHFPVYDGINYNRSGSYPVGQCTWYVYNRFKQLGTSVDEFMGNGSDWGRKGRALGYQVSSLPKAGRAISFQPGVAGADNQYGHVAFVEAVTSDGIIISESNVINDQTISYRVLPNVIAYSSGVTYIGA”, “failed”.
Under “MTEKRRRLPRPEKAILWPASYLHHRSVTQQLPIMSTPHTDFFGLTIPFMQLLGVVPEHSGNGTARTRLPARADLVNSRGDIHGGTLMSVLDFTLGAAIRGDTPEVGVATIDMNTSFMSPGRGDLVIETRCLRRGASIAFCEGEIRDSAGELVAKATATFKIIQRRPGGD” stands “failed”; under “MSRGHCILAHGFESGPDALKVTALAEVAERLGWTHERPDFTDLDARRDLGQLGDVRGRLQRLLEIARAATEKGPVVLAGSSLGSYIAAQVSLQVPTRALFLMVPPTKMGPLPALDAAAVPISIVHAWHDELIPAADVIAWAQARSARLLLVDDGHRLGAHVQAASRAFAELLQSL”, “not failed”; under “MLDCIVVGAGPAGGSAAYHLARRDRQVLLLEQAQLPRQKACAGGVSPQVARWFDCDLRSVVDHGVDRLRFTWKLGDPVEAELPSEEPFWMVRRDRFDHFLVEQAANLGARIEDGAAVTAVSAEGDGWLVTVGDRAYRSRTLIAADGARGPLAQWLGFPSQKRRYAQACELDVPLPARPDSTAHFEFGLVRNGYIWVFPKSDGYSIGIGTFRGNDATDFRGLLETYLAGFGVSADLDRIVPHPLCVWDGSQPLHRGSALLVGEAASLTDPFTAEGIRPALLSGMRAAEAIDRAIAGDRNALAGYSRTIQQEWGDSMAWAKRISSVFYRVPNLGYQIGIKRPTAPQRMAQILVGELDYSDIATRVIRRLTTGFLPGMR”, “failed”.
For the sequence “MFSQWVFLSVLALAVPSFAWAEDAVSDLAREQSKAEQGDKRGDELFAEFTRLRQAAETGEPQALFDFGAYFYQQQNYASAREWWGKAAAAGMVRAQIQLAMLYRDGDGGPQDKTEAARWFRKAAEQGDAAAQNEMGVLYWRGEGVDQDRVKAGTWFERAAASGSEDAETNLGWFYLDDSQGVYSATSDEEAALLDRYAGSREKAFQWFCKAATQGDARAQFKVGEAYWNGSGAGMNKLQARLWLEKAAQQQDADAIAWLESAANAAWYTRLENWIHAALDGELSGVADCSGAADRRHSGRGMEGAPSDPEAVEASAEDAQQAVEAASQ”, the protein production result was “failed”.
As for “MQDEYDAADLSLGVSDVTLVGEVLDTEAVRTFDRDDGSEGRVSNLVVGDETGRVRVTLWDDQADTATDLDAGAVVEIVDGYVREREGSLELHVGDTGAVTPVPDADVSFVPLEHHHHHH”, the protein production entry is recorded as “not failed”.
Consider “MNIAEQMKDVLKEEIKAAVLKAGLAEESQIPNVVLETPKDKTHGDYSTNMAMQLARVAKKAPRQIAEEIVAHFDKGKASIEKLDIAGPGFINFYMNNQYLTKLIPSVLEAGEAYG”, for which the protein production entry is “failed”.
Next, “LQTSRDLLSSVLSSSLDGIIVFSAIRSAGDTIADFECVLVNPQAEKLFESTAEDIVGMRLREDMPRQEEKGLFEAYREVVETGEPAEMEVHYDTDGQDVWFQVMAVKVENGVAVTYRDITDRKEAERQIREQAQLLDKA”: “failed”.
Consider “MAAGFSSKTTRDSPHLSEIRVVLLGNNDCDRRRVVRSVLGDLTGESVGQCTVYDGEESRRRIRVVDAPGWNSNTPQSKLRESIERSAMLCAPGPHALLLVLPVRRNEDMSAGDIKSGMKLVEMLSERAWRHTIVVFACDEGTGGFSCSQKAKIVLEKCKGRGFYLQRQGGIAQLFTQIEDLVRDNGEDDVFLPQAYHELFRRKTEGLLHRRGNLRKKPVHLSKSEAGALGVEPFSVIVIAVLAAVLVSLSFGAEYGVFGGCAGLLLGSILPF”, for which the protein production entry is “failed”.
Next, “MKAPEGIACGKRQLVVSDTGGGRLLSYSIENGSVRGGTEIKAEQVPYPTKVQLTSKGEILVIDGKLRRIAHFSPEGSFAGYLDLKGVPAPATIAPRGIRVDDKDNIHILDIFGARVIVTDAAGTFQSQMPFPEGYRFISDLAVSASGTTLLLDSVASRVYAAARGETAFKPLTDGMKEYLQFPTSIATDKQGKIFILDQTGNAVVTLGQDGSFQGRQLNIGWKNSFLHYPSQLCISEENDIDVVIADRNNNRIQVFRVVRLEHHHHHH”: “failed”.
As for “MARKVILFIAMSIDNYIADDQGAVDWLEKNVHGTESDDSYEKMYSKIDTVIMGRTTYEQVTQKLSPEKYVYADRQTYIVTSHLGEDTDKIKYWKQSPVELVKRIQKEKGKDVWIVGGAKLIDPLVQANLIDTYILTTVPIFLGSGIRLFDRLEEQVPVRLIDVYQKNELVYSIYQRG”, the protein production entry is recorded as “not failed”.

(Values after a protein production outcome set (Wang et al. 2014).)
